{
  "source": "patent CN115043938A",
  "about": "(DUAN LIANGWEI; JIANG ZHIHUA; WANG HUI, dated 2022)",
  "binders": {"B1": {"name": "抗体Amb1 (antibody, V domains shown)", "VH": "EVQLLESGTEVKKPGSSVKVSCKASGGTFSSYAISWVRQAPGQGLEWMGGIIPILGIANYAQKFQGRVTITADKSTSTAYMELSSLRSEDTAVYYCARERGYSGYGAAYYFDYWGQGTLVTVSS", "VL": "QSVLTQAPSVSGAPGQSVTISCTGSSSNIGAGYDVHWYQQLPGTAPKLLIYGNNNRPSGVPDRFSGSKSGTSASLAITGLQAEDEADYYCQSYDSSLSKGVFGGGTKLTVL"}, "B2": {"name": "抗体Amb2 (antibody, V domains shown)", "VH": "EVQLLESGPGLVKPSETLSLTCTVSGGSISNSSYYWGWIRQPPGKGLEWIGSIYYSGSTYYNPSLKSRVTISVDTSKNQFSLKLSSVTAADTGVYYCASWLYGDPISFDYWGQGTLVTVSS", "VL": "not shown"}},
  "molecular_target": "SARS-CoV-2 Beta S蛋白 (假病毒) (SARS-CoV-2 Beta, UniProt P0DTC2 14-1273)",
  "assay": "cell-based or functional assay",
  "data": [
    {"binder": "B1", "values": [
      {"measurement": "假病毒中和 IC50", "value": 0.0266, "unit": "µg/mL"}
    ]},
    {"binder": "B2", "values": [
      {"measurement": "假病毒中和 IC50", "value": 0.0452, "unit": "µg/mL"}
    ]}
  ]
}
